From paper PMC3830201 (2013)

Molecular target: F-actin assembled from rabbit skeletal muscle G-actin (Oryctolagus cuniculus (Rabbit), UniProt P68135)
Test: F-actin co-sedimentation

B1: GST-Swiprosin-1 fusion protein (wild type) (protein)
chain: MATDELATKLSRRLQMEGEGGGETPEQPGLNGAAAAAAGAPDEAAEALGSADCELSAKLLRRADLNQGIGEPQSPSRRVFNPYTEFKEFSRKQIKDMEKMFKQYDAGRDGFIDLMELKLMMEKLGAPQTHLGLKNMIKEVDEDFDSKLSFREFLLIFRKAAAGELQEDSGLCVLARLSEIDVSSEGVKGAKSFFEAKVQAINVSSRFEEEIKAEQEERKKQAEEMKQRKAAFKELQSTFK
binding result: binds
